Measurements published in the nanobody polyreactivity screen of Harvey et al. (2022).

Assay: yeast display, Sf9 membrane polyspecificity reagent, FACS + sequencing; frameworks hold sequencing errors
In short: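 Galactose-induced (36–48 hours) yeast carrying a synthetic nanobody display library were exposed to 10% biotinylated, detergent-solubilized Sf9 membrane reagent at 4 °C for 1 hour. FACS followed streptavidin microbead enrichment, using low and high (top ~1%) gates for expression (anti-HA) and reagent binding (streptavidin). Colony PCR, MiSeq 2 × 250 sequencing and CDR-length filtering followed. Labels for polyreactivity reflect the gate of origin.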

| Sequence | polyreactivity (PSR sort gate) |
| --- | --- |
| QGQLVESGGGLVQAAGSLSLSCAASGRIYPYAMGWYRQAPGKERELVAAIPVNDGSTYYADSVTGRFTIARDNAMISVDLQMNSRKPEVSAVYYWKADYPIGWRNQYVQILYDYWGQGTQVTVSS | low polyreactivity |
| QGQLVESGGGLVQAGGSLPLSCAASGFTFRWNTMGWSRQGPGKEREFVASISQRGGRTFYADSVKGRFTISRDNAKNTVYIQMNCQKPEDTAVYFCNARGHRAVPGDELGYWGQGTQVTVSS | low polyreactivity |
| QGQLVESGGGLVQAGGSLRISCGASGYIFGDKAMGWYRPEPGKARELVAAITQTGANTYYADSVMGRFTISRDNAKNTVYLQMNSLKPEDSAVYYCNKVSVVYSRSKGFYYTYLKYEFWGQGTQVTVSS | low polyreactivity |
| QGQLVESGGGLVQAGGSLRLSCAASGFIFSIYAMGWYRQAPGKDRELVAGIDNGGGTYYADSGKGRFTISRDNAKNTVYLQMNRLKPEDTAVYYCAADTYSIGELYDYWGQGTQVTVSS | low polyreactivity |
| QGQLVESGGGLVQAGGSLRLSCAASGFTFDYYAMGWYRQAPGKARELVAAITTAASTNYADSVKGRFTISRDTAKNTVYFQMNSLKPEDTAVYYCAASWWPWYISWDDYWGQGTQVTVSS | high polyreactivity |
| QGQLVESGGGLVQAGGSLRLSCAASGFTFPHYAMGWYRQAPGKERELVAAISWSGGSTFSADSVKGRFTISRDTAKNNVYLQMNSLKPADTAVYYCAARSRSWTPYYYWGQGTQVTVSS | high polyreactivity |
| QGQLVESGGGLVQAGGSLRLSCAASGFTFTSNAMGWYRQAPGQERELVAVISTRGGSTFYADSGKGRFTISRDNAKNTVYLQMNSLKPEDTAVYYCAADSTDYRWTAYYWGQGTQVTVSS | high polyreactivity |
| QGQLVESGGGLVQAGGSLRLSCAASGFTLLPYAMGWYRQAPGKERELVAAISRRGVSTYYADSVKGRFTISRDNAKNTVYLQMISLKPEDTAVYYCAAKYRKWPMDYWGQGTQVTVSS | high polyreactivity |
| QGQLVESGGGLVQAGGSLRLSCAASGIIFGGYTMGWYRQAPGKERELVAAITKRTDRTYYADSVKGRFTISRDNAKNTVYLQMHSMKPEDTAVYYCATRGGITRPWYGYDYWGQGTQVTVSS | high polyreactivity |
| QGQLVESGGGLVQAGGSLRLSCAASGLIFVWYAMGWYRQARGKERELVAAISWSGGSTYYADSVKGRFTISRDNAKNTVYLQMNSLKPEDTAVYYCATDPYGYSYLLVDYNYWGQGTQVTVSS | low polyreactivity |
| QGQLVESGGGLVQAGGSLRLSCAASGRIFRANAMGWYRQAPGKERELVAAIDASGGSTYYADSVKGRFTISRDNAKNTVYLQMNSLKPEDTAVYDCAADRGFLRSFAPGNMDYWGQGTQVTVSS | low polyreactivity |
| QGQLVESGGGLVQAGGSLRLSCAASGRTFWYYTIGWYRQAPGKERELVAAISSGGRTNYADSVKGRFTISRDNAKNPVYLQMNSLKPEDTAVYYCASSRYYKYVERDYWGQGTQVTVSS | high polyreactivity |
| QGQLVESGGGLVQAGGSLRLSCAASGSIFDLNAMGWYRQAPGKERELVAAISSGGGTYYADSVKGRFTISRDNAKNTVYLQMNCLKPEDTAVYYCNRVTRWTYNYWGQGTQVTVSS | high polyreactivity |
| QGQLVESGGGLVQAGGSLRLSCAASGSIFTFYTLGWYREAPGKVRELVAAINWSGSRTYYAASVKGRFTISRDNAKNTVYLQMNSLKPEDTAVYYCNAAIRYDWYQVLWNFSRESNYWGQGTQVTVSS | high polyreactivity |
| QGQLVESGGGLVQAGGSLRLSCAASGSIFVQNAMGWYRQAPGKEREFVAVINSGDSTNYADSVKGRFTISRDIAKNTVYLQMNSLKADDTAVYYCAVDDVSYYYLRAYNYELSWYGSGLDYWGQGTQVTVSS | low polyreactivity |
| QGQLVESGGGLVQAGGSLRLSCAASGSTFRNYAMGWYRQAPGKERELVAAISGSGGRTNYADSVKGRFTISRDNAKNTVYLQMNSLKPEDTAVYYCNARFPDWALSEISLSTTYGYWGQGTQVTVSS | low polyreactivity |
| QGQLVESGGGLVQAGGSLRLSCAASGSTIPVNAMAWYRQAPGKERELVAAITWGDGSTSYADSVKGRFTISRDNAKNTVYLQMNSLKPEDTAVYYCNKDFIYGYDAASYRPEYDYWGQGTQVTVSS | low polyreactivity |
| QGQLVESGGGLVQAGGSLRLSCAASVFTFAFYTMGWYRQATGKERELVAANTRSGGSTYYPDSVKGRFTISRDNAKNTVYLQRNSLKPEDTPVYYCAARGNTPRTRRYGYWGQGTQVTVSS | high polyreactivity |
| QGQLVESGGGLVQAGGSLRLSCAAYGSIYRNYAMGSYRQAPGKEREFVAAITTRGGRTYYADSVKGRFTISRDNAKNPVYLQINSLKPEDTAVYYCAARSYSEYNYWGQGTLVTVSS | high polyreactivity |
| QGQLVESGGGLVQAGGSLRLSCPASGRTFYGYAMGWYRQAPGKERELVAAITSSGGSTYYADSVKGRFTISRDHAKNTVYLQMNSLIPEDTAVYYCAAPSSRGQGRNFDYWGQGSQVTVSS | high polyreactivity |
| QGQLVESGGGLVQAGGSLRLSSAASGSTFAHYAMGWYRQAPGKERELVAAISRGGGSTYYADSVKGRFTISRDNAKNTVYVQMNSLKPEDTAVYYCAADPRYRVTLGFDYWGQGTQVTVSS | high polyreactivity |
| QGQLVESGGGLVQAGGSLSLSCAASRLTFYSNAMGWYRPAPGKEREMVAAISWIGASTYYADSVKGRFPISRDNAKNTVYLQMNSLKPEDTAVYYCAARAQARVFGWRFYYWGQGTQVTVSS | high polyreactivity |

| Sequence | polyreactivity (PSR sort gate) |
| --- | --- |
| QGQLVESGGRLVQAGGSLRVSCAASGLTFNYYAMRWYRPAPGKERELVASISRSGGSTYYADSVKGRFTISRDNAKNTVYLQMNSLKPVDTAVYYCAAYRRRTYAVNKEGGYWGQGTQVTVSS | high polyreactivity |
| QGQLVESGRGLVQAGGSLRLSCAASGRIFYSYAMGWYRQAPGKERELVAAISSGGSTKYADSVKGRFTISRDNAKNTVYLQMNSLKPEDTAVYYCAARTYQKGGRYYYWGQGTQVTVSS | high polyreactivity |
| QGQLVESRGGLVQAGGSLRLICAASGFIFFIKSMGWYRQAPGKERELVAAINWTGGSTYADSVKGRFTISRDNAKNTVYLQMNSLKPEDTAVYYCAADPWDIYRRLSQGDHDYWGQGTQVTVSS | low polyreactivity |
| QGQLVETGGGLVQAGGSLRLSCAASGRSSVSMLMGWYRQPPGKERELVARITGSGGSTFYADSVKGRFTISRDNAKNTVYLQMNSLIPEDTAVYYCAAGYLWRGRYNYWGQGTQVTVSS | high polyreactivity |
| QGQLVETGGGLVQAGGSLRLSCDASGSIFYSNRGSYRQAPGKESEFVSAISGSGVRTYYADSLKGRFTISRDNAKNTVYLQMNSLKPEDNEVYYCNAGRRQDYRYNYWGQGTQVTVSS | high polyreactivity |
| QGQPVESGGGLVQAGGSLRLSCAASGLIFRWYAMGWNRQAPVQEREVVAAISWSGASTYYADSVKGRFTISRDTPKNTVYLQMNSLKPDDTAVYYCAADYGYYGAGSYFDRGDYWGQGTQVTVSS | high polyreactivity |
| QGQRVESAGGLVQAGGSLRLSCAASGITFARNVMGWSRQAPGQERELVAAISRGDSTYYADSVKGRFTISRDNAKNTVYLQLNSLKPEDTAVYYCAAAVKHVAYHYNYWGQGTQVTVSS | high polyreactivity |
| QGQRVESGGGLVQAGGSLRLSCAASGSIFSYNTMGWYRQAPGKEREFVATIDWRDGSTYYADSVKGRFTISRDNAKNTVYLQMNSLKPEDTAVYYCATYYIVVEDNYWGQGTQVTVSS | high polyreactivity |
| QLKHEESRGGLVQAGGSLRLSCAASGSTIYTYVMGWYRQAPGNERELVAAISWSGSSTYYADSVKGRFTISRDNAKNTVYLHMNSLKPEDTAVYYCNADPSQHTSAGYSSYEYYYWGQGTQVTVSS | low polyreactivity |
| QLQHVESGGGLVQAGGSLRLSCAASGRIFGVNAQGWYRQAPGKERELVAAITSGGSTYYADSVKGRFTISRDNAKNTVYLQMKSLKPEDTAVYYGAARYYYLLWYTLPTKYDYWGQGTQVTVSS | high polyreactivity |
| QLQLEESGGGLVQAGGSLRISCDASGTIFGNYAMGWYRQAPGKERELVAAITGSGGRTYYADSVKGRFTISRDNAKNTVYLQMNSLKPEDTAVYYCAARSYGRWYYTLYNYWGQGTQVTVSS | high polyreactivity |
| QLQLEESGGGLVQAGGSLRLSCAASVRTLRRNAMGWYRQAPGKEKELVAAITGSGGSTYYADSVKGRFTISRDNAKNTVYLQMNSLKPEDTAVYYCAARGPSRRRDGSDYWGQGTQVTVSS | high polyreactivity |
| QLQLEESGGGLVQAGGSLRLSCAAYGNILGYNAMGWYRQAPGKERELVAAISDNADSTYYADSVKGRFTISRDNAKNTVYLQMNSLKPEDPAVYYCAADWVLRTWLFWYTKYDYWGQGTQVTVSS | low polyreactivity |
| QLQLQESGGGLVQAGGSLRLSCAASGSISHYIFMGWYRKAPGKEREFVAGIGYGGTTNYADSVKGRFTISRDNAINNVYLQMNSLKPEDTAMYYCAAREATEFYLYYWGQGTQVTVSS | low polyreactivity |
| QLQLQESGRGLVQAGGSLRLSCAASGNIVDADIMGWYRQAPGKERELVASITDGGSTNYADSVKGRFTISRDNAKNTVYLQMNSLKTEDTAVYYCAAIAYPVIPTYFDYDSEYFYWGQGTQVTVSS | low polyreactivity |
| QLQLVDSGGGLVQAGGSLRLSCAASGSIFAQYAMGWYRQAPEKERELVADISGDGSTYYADSVKGRFTISRDNAKNTVYLQMNSLKPEDTAVYYCADRKLYGSPEHGYWGQGTQVTVSS | high polyreactivity |
| QLQLVESAGGLVQAGGSLRLRCAASGSTFSSYAMGWYRQAPWKERELVADITSSGGSTYYADSVKGRFTISRDNAKNSVYLQMNSLTPEDTAVYYCAADDVIFWLYYYWGQGTQVTVSS | low polyreactivity |
| QLQLVESCGGLVQAGGSLRLSCAASGSILLNNAMGWYRQAPGKERELVAAISLSGGGSTYYADSVKGRFTLSRDNAKNTVYLQMNSLIPEDTAVYYCNADDPYLYYDSYDYWGQGTQVTVSS | low polyreactivity |
| QLQLVESGAGLVQAGGSLRLSCAASGNIFRKNAMGRSRQAPGKERELVAAISRRGGNSYYADSVKGRFTISRDNAKNTVYLQMNSLKPEDTAVYYCAADWSPTAASDYWGQGTQVTVSS | high polyreactivity |
| QLQLVESGGGFVQAGGSLRLSCAASGSTFQIYTMGWYRQAPGKERELVAAITNGGGSTYYADSVKGRFTISRDKANNTVYLQMNSLKPEDTAVYYCAAEQRYPLIILYDYWGQGTQVTVSS | low polyreactivity |
| QLQLVESGGGFVQAGGSLRLSCDASGSTFGNYTMGWYRQAPGKERELVAAISFSGGRTYYADSVKGRFTISRDNAKNTVYLQMNSLKPADTAVYYCAKRSYGYSAFIYNYWGQGTQVTVSS | high polyreactivity |
